This is an account of results in patent publication US20140294765A1 (COMPUGEN, published 2014).

The target of assay [1] is T1, Peptide 2, amino acid residues 118-135 of SEQ ID NO:10 (human).
T1 construct: Immunisation peptide from the ECD of human LSR
T1 peptide: CQDSVRTVRVVATKQGNA
In words: ELISA, hybridoma culture supernatant. On the procedure: FACS analysis was subsequently carried out with purified monoclonal Ab, 8C8, using a goat anti mouse-Alexa Fluor 488 (Invitrogen cat# A10667) as secondary Ab for detection.
Culture supernatants of the hybridoma clones were analyzed by ELISA.
Background: In an ELISA, binding on a coated surface is turned into a signal by an enzyme label.

Assay [2] concerns the target T2, mouse WT LSR protein expressed in stably transfected HEK293 or CHO-K1 cells (mouse, UniProt Q99KG5 36-594).
T2 construct: Made with a C-terminal Flag tag (pcDNA3.1); Lysate for the Western blot; also called WT-Mouse LSR-flag protein
T2 sequence: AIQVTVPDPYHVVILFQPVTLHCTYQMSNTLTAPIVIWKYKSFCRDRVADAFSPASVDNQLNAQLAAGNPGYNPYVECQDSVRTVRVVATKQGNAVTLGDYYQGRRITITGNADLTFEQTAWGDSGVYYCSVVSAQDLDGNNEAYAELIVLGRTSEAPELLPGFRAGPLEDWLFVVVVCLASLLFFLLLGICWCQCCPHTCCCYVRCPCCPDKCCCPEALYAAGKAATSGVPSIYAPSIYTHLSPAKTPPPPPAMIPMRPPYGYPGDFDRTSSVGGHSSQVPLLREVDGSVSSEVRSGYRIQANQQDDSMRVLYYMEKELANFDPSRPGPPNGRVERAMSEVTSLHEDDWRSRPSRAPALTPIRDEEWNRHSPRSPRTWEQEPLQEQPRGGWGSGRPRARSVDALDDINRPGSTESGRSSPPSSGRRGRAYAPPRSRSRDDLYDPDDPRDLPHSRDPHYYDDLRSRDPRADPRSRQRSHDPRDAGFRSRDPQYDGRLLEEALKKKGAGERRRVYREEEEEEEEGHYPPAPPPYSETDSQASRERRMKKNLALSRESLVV
Kind of assay: flow cytometry on stably transfected CHO-K1 cells, 8C8 at 1, 2.5, 5 and 10 ug/ml, Geo Mean (FL1). (In general: A flow cytometer gives signals particle by particle.)

B1: 8C8, mouse IgG2a monoclonal antibody against human LSR (antibody, V domains shown)
VH: DVKLVESGGGLVKLGGSLKLSCAASGFTFSSYYMSWVRQTPEKRLELVAAINSNGGSTYYPDTVKGRFTISRDNAKNTLYLQMSSLKSEDTALYYCARHDYYGSSFAMDYWGQGTSVTVSS
VL: DIQMTQTTSSLSASLGDRVTISCRASQDISNYLNWYQQKPDGTVKLLIYYTSRLHSGVPSRFSGSGSGTDYSLTISNLEQEDIATYFCQQDSKHPWTFGGGTKLEIK
notes: also called 8C8 mAb; mAb 8C8
On to B1, for which the binding result in assay [1] is given as “no binding”; in assay [2] it was “binds”.
